# Measurements as given in patent US12072338B2, “Pharmaceutical peptides for the treatment of inflammatory diseases” (PROTAGONISTS LTD., priority 2007, dated 2024).
# Read-outs that look alike come from different tables or passages of the source.
# What was measured:
# Exodus-2 = target: T1, Exodus-2 (Homo sapiens, UniProt O00585); experiment: Micro-array analysis of chemokine binding peptides: Exodus-2
# T1 construct: purchased 300-35
# T1 sequence (O00585 24-134): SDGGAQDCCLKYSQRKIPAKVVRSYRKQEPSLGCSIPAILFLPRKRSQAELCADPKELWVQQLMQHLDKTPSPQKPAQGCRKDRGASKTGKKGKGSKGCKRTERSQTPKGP
# Method in brief: (§1)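 Relative Cy3 fluorescence reflects how much recombinant phage (10^7 pfu/μl, 1 h, RT) bound chemokine printed at 25 or 50 μg/ml. Detection used anti-M13 monoclonal followed by Cy3 anti-mouse IgG.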
# RANTES = target: T2, RANTES (Homo sapiens, UniProt P13501); experiment: Micro-array analysis of chemokine binding peptides: RANTES
# T2 construct: purchased 300-06
# T2 sequence (P13501 24-91): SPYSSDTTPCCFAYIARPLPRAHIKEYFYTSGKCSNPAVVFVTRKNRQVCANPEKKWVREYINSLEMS
# Method in brief: as §1
# IP-10 = target: T3, IP-10 (Homo sapiens, UniProt P02778); experiment: Micro-array analysis of chemokine binding peptides: IP-10
# T3 construct: purchased 300-12
# T3 sequence (P02778 22-98): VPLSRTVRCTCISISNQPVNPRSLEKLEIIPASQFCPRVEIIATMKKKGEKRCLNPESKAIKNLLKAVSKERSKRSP
# Method in brief: as §1
# MIP3-α = target: T4, MIP3-α (Homo sapiens, UniProt P78556); experiment: Micro-array analysis of chemokine binding peptides: MIP3-α
# T4 construct: purchased 300-29A
# Experimental: (1) Printing: Chemokine (CK) solution (in water) was serially diluted with Print Reagent (GenTel BioSurfaces USA) to final concentrations of 50 μg and 25 μg/ml. BSA/BSA-Biotin control solutions (in water) were diluted with Print Reagent to 100 μg/ml. Amplified stock of M13 phage control (M13KEgIII Cloning Vector, New England Biolabs, Cat.No.E8101S) was stored in Tris Buffered Saline (TBS; pH7.5, 4° C.) and diluted with Print Reagent to the working titre (10^8 pfu/μl). An automated spotting robot (16 pin print tool, 0.4 mm head; BioRobotics, UK) was used to print the CK/BSA control/M13 control, 5 repeats per sample (CK 25 μg/ml and 50 μg/ml; BSA 100 μg/ml; M13 20 μl), on PATH Protein Microarray Slides (GenTel, Prod.No. 2-1005/-1025) at […], and 50-70% relative humidity. Printed micro-array slides were stored at Room Temperature (RT) or 4° C. for at least 24 h before use. […]
# (§2) (11) Analysis: Quantitative analysis of micro-array was performed by the SpotReader program of Niles Scientific (USA) and presented as Relative Fluorescence (RF) as a function of CK concentration. Micro-array readout (Cy3 fluorescence) was quantified to determine the relative binding affinities of a CBP for the CKs and by inference, the specificity of the CBP for binding to a CK.
# SDF1 = experiment: Micro-array analysis of chemokine binding peptides: SDF1 (isoform not given)
# Experimental: (1) Printing: Chemokine (CK) solution (in water) was serially diluted with Print Reagent (GenTel BioSurfaces USA) to final concentrations of 50 μg and 25 μg/ml. BSA/BSA-Biotin control solutions (in water) were diluted with Print Reagent to 100 μg/ml. Amplified stock of M13 phage control (M13KEgIII Cloning Vector, New England Biolabs, Cat.No.E8101S) was stored in Tris Buffered Saline (TBS; pH7.5, 4° C.) and diluted with Print Reagent to the working titre (10^8 pfu/μl). An automated spotting robot (16 pin print tool, 0.4 mm head; BioRobotics, UK) was used to print the CK/BSA control/M13 control, 5 repeats per sample (CK 25 μg/ml and 50 μg/ml; BSA 100 μg/ml; M13 20 μl), on PATH Protein Microarray Slides (GenTel, Prod.No. 2-1005/-1025) at […], and 50-70% relative humidity. Printed micro-array slides were stored at Room Temperature (RT) or 4° C. for at least 24 h before use.
# (2) Blocking: Block Buffer (500 μl/partition; PATHblock, GenTel, Prod.No. 2-1014) was applied to the slide for 1 hour at room temp (RT). After removal of Block Buffer, the slide was air dried for 25 minutes;
# (3) Phage Presented Peptide Binding: Amplified recombinant phage stock was stored in TBS and diluted with Wash Buffer to working titer (10^7 pfu/μl). Recombinant phage suspension (300 μl) was applied per partition and incubated at RT for 1 hour with gentle agitation.
# (4) First Washing: The slides were washed twice with Wash Buffer 300 μl/partition).
# (5) Primary Antibody (Ab) Labeling: The slides were incubated with the Primary Ab (1 mg/ml diluted ×2500 (Wash Reagent), 300 μl; Mouse Anti-M13 monoclonal Ab; Amersham Biosciences, UK; Product Code 27-9420-01) for 45 minutes at RT.
# (6) Second Washing: The slides were washed twice with Wash Buffer (300 μl/partition).
# (7) Secondary Ab Labeling: The slides were incubated with Secondary Ab (1.5 mg/ml diluted ×5000 (Wash Reagent), 300 μl; Cy3-conjugated AffiniPure Goat Anti-Mouse IgG; Jackson ImmunoReserch Labs, USA; Product Code 115-165-062).
# (8) Third Washing: The slides were washed twice with Wash Buffer (300 μl/partition).
# (9) Rinse: the slides were rinsed twice with Rinse Buffer (PATHrinse, GenTel, Prod.No. 2-1018) then dried well.
# (10) Scanning: The peptide-bound, labeled slide was scanned (Laser Intensity 80%, Gain 80%, Resolution 10 μm) with a ScanArray Life Scanner (Packard BioChip Technologies, USA).
# as §2
# Chain of SDF1 (P48061 22-89 limits assumed): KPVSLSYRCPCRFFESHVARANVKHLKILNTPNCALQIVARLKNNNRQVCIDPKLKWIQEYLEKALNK
# T4 sequence (P78556 27-96): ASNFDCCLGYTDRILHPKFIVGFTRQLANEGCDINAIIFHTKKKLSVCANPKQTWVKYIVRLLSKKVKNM
"binding to Exodus-2, stated in words (Exodus-2)",binding to RANTES with relatively high affinity (Relative Fluorescence Units) (RANTES; limit = start of the upper 75% of that peptide's response range),"binding to IP-10, stated in words (IP-10)","binding to IP-10, stated in words (IP-10; listed as P8.8)","binding to MIP3-α, stated in words (MIP3-α)","binding to SDF1 (isoform not given), stated in words (SDF1)","binding to RANTES, stated in words (RANTES)",Sequence
bound,"> 15,000 RFU",–,–,–,–,–,DYDYGAPC [Ph-p30]
bound,–,bound,bound specifically and differentially,bound,bound specifically and differentially,–,WVFGAAMCK [Ph-p8.8]
–,–,–,–,–,bound specifically and differentially,bound specifically and differentially,WVFGNAMCK [P8]
